Results from ChEMBL document CHEMBL2074146, “Transport of the sulfated, amidated bile acid, sulfolithocholyltaurine, into rat hepatocytes is mediated by Oatp1 and Oatp2” (Hepatology, 2002).

Experiments:
Assay type in all cases: functional, cell-based
[1] = biological target: T1, Solute carrier organic anion transporter family member 1A4 (Rattus norvegicus, UniProt O35913); test: (§1) TP_TRANSPORTER: uptake in Oatp2-expressing HeLa cells; conditions: human
T1 sequence (O35913 whole entry): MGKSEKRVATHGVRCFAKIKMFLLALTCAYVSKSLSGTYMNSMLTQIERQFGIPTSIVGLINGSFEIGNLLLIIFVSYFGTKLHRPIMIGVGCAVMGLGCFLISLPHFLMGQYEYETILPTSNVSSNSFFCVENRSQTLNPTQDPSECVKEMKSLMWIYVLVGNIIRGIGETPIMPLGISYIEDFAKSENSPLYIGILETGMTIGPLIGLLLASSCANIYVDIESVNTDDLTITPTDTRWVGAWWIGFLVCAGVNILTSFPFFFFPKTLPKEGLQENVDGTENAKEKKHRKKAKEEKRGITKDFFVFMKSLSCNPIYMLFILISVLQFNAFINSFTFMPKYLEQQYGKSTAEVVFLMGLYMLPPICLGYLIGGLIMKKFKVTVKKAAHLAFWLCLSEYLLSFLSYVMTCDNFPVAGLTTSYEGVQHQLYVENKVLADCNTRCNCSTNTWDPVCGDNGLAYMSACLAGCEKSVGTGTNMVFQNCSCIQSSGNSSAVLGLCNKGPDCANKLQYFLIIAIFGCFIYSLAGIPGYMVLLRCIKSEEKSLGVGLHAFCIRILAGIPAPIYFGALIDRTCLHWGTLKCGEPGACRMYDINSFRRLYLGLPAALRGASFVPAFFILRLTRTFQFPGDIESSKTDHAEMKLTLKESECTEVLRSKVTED

[2] = substrate: [H][C@]12CC[C@]3([H])[C@]([H])(CC[C@]4(C)C([C@H](C)CCC(=O)NCCS(=O)(=O)O)CC[C@@]34[H])[C@@]1(C)CC[C@@H](OS(=O)(=O)O)C2; test: as §1
[3] = substrate: [H][C@]12CC[C@]3([H])[C@]([H])(CC[C@]4(C)C([C@H](C)CCC(=O)NCCS(=O)(=O)O)CC[C@@]34[H])[C@@]1(C)CC[C@@H](OS(=O)(=O)O)C2; test: TP_TRANSPORTER: uptake in Oatp1-expressing HeLa cells

Molecule: C[C@]12CC[C@@H]3c4ccc(O)cc4CC[C@H]3[C@@H]1CC[C@@H]2O[C@@H]1O[C@H](C(=O)O)[C@@H](O)[C@H](O)[C@H]1O [ESTRADIOL 17B GLUCURONIDE]
- Activity [1]: substrate [+]

B1: Solute carrier organic anion transporter family member 1A4 (Rattus norvegicus) (protein)
chain: MGKSEKRVATHGVRCFAKIKMFLLALTCAYVSKSLSGTYMNSMLTQIERQFGIPTSIVGLINGSFEIGNLLLIIFVSYFGTKLHRPIMIGVGCAVMGLGCFLISLPHFLMGQYEYETILPTSNVSSNSFFCVENRSQTLNPTQDPSECVKEMKSLMWIYVLVGNIIRGIGETPIMPLGISYIEDFAKSENSPLYIGILETGMTIGPLIGLLLASSCANIYVDIESVNTDDLTITPTDTRWVGAWWIGFLVCAGVNILTSFPFFFFPKTLPKEGLQENVDGTENAKEKKHRKKAKEEKRGITKDFFVFMKSLSCNPIYMLFILISVLQFNAFINSFTFMPKYLEQQYGKSTAEVVFLMGLYMLPPICLGYLIGGLIMKKFKVTVKKAAHLAFWLCLSEYLLSFLSYVMTCDNFPVAGLTTSYEGVQHQLYVENKVLADCNTRCNCSTNTWDPVCGDNGLAYMSACLAGCEKSVGTGTNMVFQNCSCIQSSGNSSAVLGLCNKGPDCANKLQYFLIIAIFGCFIYSLAGIPGYMVLLRCIKSEEKSLGVGLHAFCIRILAGIPAPIYFGALIDRTCLHWGTLKCGEPGACRMYDINSFRRLYLGLPAALRGASFVPAFFILRLTRTFQFPGDIESSKTDHAEMKLTLKESECTEVLRSKVTED
- Km [2]: 14.6 µM

B2: Solute carrier organic anion transporter family member 1A1 (Rattus norvegicus) (protein)
chain: MEETEKKIATQEGRLFSKMKVFLLSLTCACLTKSLSGVYMNSMLTQIERQFDISTSVAGLINGSFEIGNLFFIVFVSYFGTKLHRPVVIGIGCVIMGLGCLLMSLPHFFMGRYEYETTISPTGNLSSNSFLCMENRTQTLKPTQDPAECVKEMKSLMWICVMVGNIIRGIGETPIVPLGISYIEDFAKSENSPLYIGILEMGKVAGPIFGLLLGSYCAQIYVDIGSVNTDDLTITPSDTRWVGAWWIGFLVCAGVNILTSIPFFFLPKALPKKGQQENVAVTKDGKVEKYGGQAREENLGITKDFLTFMKRLFCNPIYMLFILTSVLQVNGFINKFTFLPKYLEQQYGKSTAEAIFLIGVYSLPPICLGYLIGGFIMKKFKITVKKAAYLAFCLSVFEYLLFLCHFMLTCDNAAVAGLTTSYKGVQHQLHVESKVLADCNTRCSCSTNTWDPVCGDNGVAYMSACLAGCKKFVGTGTNMVFQDCSCIQSLGNSSAVLGLCKKGPECANRLQYFLILTIIISFIYSLTAIPGYMVFLRCVKSEEKSLGVGLHTFCIRVFAGIPAPVYFGALIDRTCLHWGTLKCGQRGACRMYDINSFRHIYLGLPIALRGSSYLPAFFILILMRKFQFPGDIDSSATDHTEMMLGEKESEHTDVHGSPQVENDGELKTKL
- Km [3]: 12.6 µM
